# Test results: US12594285B2, “Compositions and methods for protecting against airborne pathogens and irritants” (APPLIED BIOLOGICAL LABORATORIES, INC., priority 2016, dated 2026)
# How the values were obtained:
# [1] = in some studies; cited from earlier work
# [2] = system: herpes simplex virus (topical application) and hepatitis C infection; conditions: before versus after contact with the virus; cited from earlier work
# [3] = system: Human Rhinovirus A16 (clinical strain: QCHRV.16); test: Apical Rhinovirus replication by quantitative RT-PCR (Example 6); type: cell-based; conditions: Example 6, 24 hours pi (D1)
molecule,measurement,setting,value
"bovine lactoferrin: bovine form of the glycoprotein lactoferrin, 69% homology to human lactoferrin (protein, UniProt P24627 20-708, looked up) Lactotransferrin: APRKNVRWCTISQPEWFKCRRWQWRMKKLGAPSITCVRRAFALECIRAIAEKKADAVTLDGGMVFEAGRDPYKLRPVAAEIYGTKESPQTHYYAVAVVKKGSNFQLDQLQGRKSCHTGLGRSAGWIIPMGILRPYLSWTESLEPLQGAVAKFFSASCVPCIDRQAYPNLCQLCKGEGENQCACSSREPYFGYSGAFKCLQDGAGDVAFVKETTVFENLPEKADRDQYELLCLNNSRAPVDAFKECHLAQVPSHAVVARSVDGKEDLIWKLLSKAQEKFGKNKSRSFQLFGSPPGQRDLLFKDSALGFLRIPSKVDSALYLGSRYLTTLKNLRETAEEVKARYTRVVWCAVGPEEQKKCQQWSQQSGQNVTCATASTTDDCIVLVLKGEADALNLDGGYIYTAGKCGLVPVLAENRKSSKHSSLDCVLRPTEGYLAVAVVKKANEGLTWNSLKDKKSCHTAVDRTAGWNIPMGLIVNQTGSCAFDEFFSQSCAPGADPKSRLCALCAGDDQGLDKCVPNSKEKYYGYTGAFRCLAEDVGDVAFVKNDTVWENTNGESTADWAKNLNREDFRLLCLDGTRKPVTEAQSCHLAVAPNHAVVSRSDRAAHVKQVLLHQQALFGKNGKNCPDKFCLFKSETKNLLFNDNTECLAKLGGRPTYEEYLGTEYVTAIANLKKCSTSPLLEACAFLTR",concentration required for an antimicrobial effect relative to human lactoferrin,[1],1/10
"lactoferrin: glycoprotein of approximately 703 amino acids and approximately 80 kD in exocrine secretions (protein, UniProt P02788 20-710, looked up) Lactotransferrin: GRRRSVQWCAVSQPEATKCFQWQRNMRKVRGPPVSCIKRDSPIQCIQAIAENRADAVTLDGGFIYEAGLAPYKLRPVAAEVYGTERQPRTHYYAVAVVKKGGSFQLNELQGLKSCHTGLRRTAGWNVPIGTLRPFLNWTGPPEPIEAAVARFFSASCVPGADKGQFPNLCRLCAGTGENKCAFSSQEPYFSYSGAFKCLRDGAGDVAFIRESTVFEDLSDEAERDEYELLCPDNTRKPVDKFKDCHLARVPSHAVVARSVNGKEDAIWNLLRQAQEKFGKDKSPKFQLFGSPSGQKDLLFKDSAIGFSRVPPRIDSGLYLGSGYFTAIQNLRKSEEEVAARRARVVWCAVGEQELRKCNQWSGLSEGSVTCSSASTTEDCIALVLKGEADAMSLDGGYVYTAGKCGLVPVLAENYKSQQSSDPDPNCVDRPVEGYLAVAVVRRSDTSLTWNSVKGKKSCHTAVDRTAGWNIPMGLLFNQTGSCKFDEYFSQSCAPGSDPRSNLCALCIGDEQGENKCVPNSNERYYGYTGAFRCLAENAGDVAFVKDVTVLQNTDGNNNEAWAKDLKLADFALLCLDGKRKPVTEARSCHLAMAPNHAVVSRMDKVERLKQVLLHQQAKFGRNGSDCPDKFCLFQSETKNLLFNDNTECLARLHGKTTYEKYLGPQYVAGITNLKKCSTSPLLEACEFLRK",protection against viral infection,[2],protective before contact with the virus but not after
"soluble ICAM-1: soluble form of intercellular adhesion molecule 1, sole antiviral agent of formulations R3 and R4 (protein, UniProt P05362 28-480, looked up, extracellular domain, soluble form of intercellular adhesion molecule 1, sole antiviral agent of formulations R3 and R4) extracellular domain: QTSVSPSKVILPRGGSVLVTCSTSCDQPKLLGIETPLPKKELLLPGNNRKVYELSNVQEDSQPMCYSNCPDGQSTAKTFLTVYWTPERVELAPLPSWQPVGKNLTLRCQVEGGAPRANLTVVLLRGEKELKREPAVGEPAEVTTTVLVRRDHHGANFSCRTELDLRPQGLELFENTSAPYQLQTFVLPATPPQLVSPRVLEVDTQGTVVCSLDGLFPVSEAQVHLALGDQRLNPTVTYGNDSFSAKASVSVTAEDEGTQRLTCAVILGNQSQETLQTVTIYSFPAPNVILTKPEVSEGTEVTVKCEAHPRAKVTLNGVPAQPLGPRAQLLLKATPEDNGRSFSCSATLEVAGQLIHKNQTRELRVLYGPRLDERDCPGNWTWPENSQQTPMCQAWGNPLPELKCLKDGTFPLPIGESVTVTRDLEGTYLCRARSTQGEVTRKVTVNVLSPRYE",replication of HRV-A16 virus at D1,[3],inhibited replication
